T1: human EpCAM expressed on cells (CHO cells stably transfected with human EpCAM); EpCAM-positive human tumor … (human, UniProt P16422 24-314)
T1 sequence (looked up): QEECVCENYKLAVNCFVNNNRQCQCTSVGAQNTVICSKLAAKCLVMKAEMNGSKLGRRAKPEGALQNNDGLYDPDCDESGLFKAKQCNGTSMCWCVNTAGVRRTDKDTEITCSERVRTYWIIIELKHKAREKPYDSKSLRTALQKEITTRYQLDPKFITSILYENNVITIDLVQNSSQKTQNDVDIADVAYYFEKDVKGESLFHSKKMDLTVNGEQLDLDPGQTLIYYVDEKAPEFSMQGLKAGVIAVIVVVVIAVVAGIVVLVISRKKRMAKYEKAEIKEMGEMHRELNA

T2: recombinant human EpCAM (rhEpCAM), coated on ELISA plate (human, UniProt P16422 24-265)
T2 construct: Bought reagent
T2 sequence (looked up): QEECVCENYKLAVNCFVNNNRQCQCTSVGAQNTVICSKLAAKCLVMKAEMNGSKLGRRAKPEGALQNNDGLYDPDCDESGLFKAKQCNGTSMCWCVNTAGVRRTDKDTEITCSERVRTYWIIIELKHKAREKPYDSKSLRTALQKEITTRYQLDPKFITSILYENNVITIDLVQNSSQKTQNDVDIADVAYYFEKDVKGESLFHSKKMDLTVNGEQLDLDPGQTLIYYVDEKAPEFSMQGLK

T3: Fc-tagged EpCAM (R&D Systems, cat #960-EP-050), human, coupled to SPR chip (human, UniProt P16422 24-265)
T3 construct: Bought reagent; also called human EpCAM; EpCAM chip; not shown: Fc tag of the bought reagent
T3 sequence (looked up): T2 sequence (looked up)

B1: AC1484 non-cleavable anti-EpCAM×anti-CD3 ProTIA (ProTIA without the release segment cleavage sequence) (bispecific antibody)
chain: DIQMTQSPSSLSASVGDRVTITCRSTKSLLHSNGITYLYWYQQKPGKAPKLLIYQMSNLASGVPSRFSSSGSGTDFTLTISSLQPEDFATYYCAQNLEIPRTFGQGTKVEIKGATPPETGAETESPGETTGGSAESEPPGEGQVQLVQSGPGLVQPGGSVRISCAASGYTFTNYGMNWVKQAPGKGLEWMGWINTYTGESTYADSFKGRFTFSLDTSASAAYLQINSLRAEDTAVYYCARFAIKGDYWGQGTLLTVSSGGGGSDIQMTQSPSSLSASVGDRVTITCRASQDIRNYLNWYQQKPGKAPKLLIYYTSRLESGVPSRFSGSGSGTDYTLTISSLQPEDFATYYCQQGNTLPWTFGQGTKVEIKGATPPETGAETESPGETTGGSAESEPPGEGEVQLVESGGGLVQPGGSLRLSCAASGYSFTGYTMNWVRQAPGKGLEWVALINPYKGVSTYNQKFKDRFTISVDKSKNTAYLQMNSLRAEDTAVYYCARSGYYGDSDWYFDVWGQGTLVTVSSGSPGSPAGSPTSTEEGTSESATPESGPGTSTEPSEGSAPGSPAGSPTSTEEGTSTEPSEGSAPGTSTEPSEGSAPGTSESATPESGPGSEPATSGSETPGSEPATSGSETPGSPAGSPTSTEEGTSESATPESGPGTSTEPSEGSAPGTSTEPSEGSAPGSPAGSPTSTEEGTSTEPSEGSAPGTSTEPSEGSAPGTSESATPESGPGTSTEPSEGSAPGTSESATPESGPGSEPATSGSETPGTSTEPSEGSAPGTSTEPSEGSAPGTSESATPESGPGTSESATPESGPGSPAGSPTSTEEGTSESATPESGPGSEPATSGSETPGTSESATPESGPGTSTEPSEGSAPGTSTEPSEGSAPGTSTEPSEGSAPGTSTEPSEGSAPGTSTEPSEGSAPGTSTEPSEGSAPGSPAGSPTSTEEGTSTEPSEGSAPGTSESATPESGPGSEPATSGSETPGTSESATPESGPGSEPATSGSETPGTSESATPESGPGTSTEPSEGSAPGTSESATPESGPGSPAGSPTSTEEGSPAGSPTSTEEGSPAGSPTSTEEGTSESATPESGPGTSTEPSEGSAPGTSESATPESGPGSEPATSGSETPGTSESATPESGPGSEPATSGSETPGTSESATPESGPGTSTEPSEGSAPGSPAGSPTSTEEGTSESATPESGPGSEPATSGSETPGTSESATPESGPGSPAGSPTSTEEGSPAGSPTSTEEGTSTEPSEGSAPGTSESATPESGPGTSESATPESGPGTSESATPESGPGSEPATSGSETPGSEPATSGSETPGSPAGSPTSTEEGTSTEPSEGSAPGTSTEPSEGSAPGSEPATSGSETPGTSESATPESGPGTSTEPSEGSAPGHHHHHH
notes: Single chain: anti-EpCAM scFv, anti-CD3 scFv, XTEN864, His6, no release segment; also called non-cleavable ProTIA; protease-non-cleavable anti-EpCAM×anti-CD3 ProTIA
B2: AC1952 anti-human EpCAM×anti-human CD3 ProTIA with two XTEN, RSR-2295, uncleaved (bispecific antibody)
chain: SPAGSPTSTEEGTSESATPESGPGTSTEPSEGSAPGTSESATPESGPGSEPATSGSETPGTSESATPESGPGSEPATSGSETPGTSESATPESGPGTSTEPSEGSAPGSPAGSPTSTEEGTSESATPESGPGSEPATSGSETPGTSESATPESGPGSPAGSPTSTEEGSPAGSPTSTEEGTSTEPSEGSAPGTSESATPESGPGTSESATPESGPGTSESATPESGPGSEPATSGSETPGSEPATSGSETPGSPAGSPTSTEEGTSTEPSEGSAPGTSTEPSEGSAPGGSAPEAGRSANHTPAGLTGPATSGSETPGTDIQMTQSPSSLSASVGDRVTITCRSTKSLLHSNGITYLYWYQQKPGKAPKLLIYQMSNLASGVPSRFSSSGSGTDFTLTISSLQPEDFATYYCAQNLEIPRTFGQGTKVEIKGATPPETGAETESPGETTGGSAESEPPGEGQVQLVQSGPGLVQPGGSVRISCAASGYTFTNYGMNWVKQAPGKGLEWMGWINTYTGESTYADSFKGRFTFSLDTSASAAYLQINSLRAEDTAVYYCARFAIKGDYWGQGTLLTVSSGGGGSELVVTQEPSLTVSPGGTVTLTCRSSTGAVTTSNYANWVQQKPGQAPRGLIGGTNKRAPGTPARFSGSLLGGKAALTLSGVQPEDEAEYYCALWYSNLWVFGGGTKLTVLGATPPETGAETESPGETTGGSAESEPPGEGEVQLLESGGGLVQPGGSLKLSCAASGFTFNTYAMNWVRQAPGKGLEWVARIRSKYNNYATYYADSVKDRFTISRDDSKNTAYLQMNNLKTEDTAVYYCVRHGNFGNSYVSWFAYWGQGTLVTVSSGTAEAASASGEAGRSANHTPAGLTGPPGSPAGSPTSTEEGTSESATPESGPGTSTEPSEGSAPGSPAGSPTSTEEGTSTEPSEGSAPGTSTEPSEGSAPGTSESATPESGPGSEPATSGSETPGSEPATSGSETPGSPAGSPTSTEEGTSESATPESGPGTSTEPSEGSAPGTSTEPSEGSAPGSPAGSPTSTEEGTSTEPSEGSAPGTSTEPSEGSAPGTSESATPESGPGTSTEPSEGSAPGTSESATPESGPGSEPATSGSETPGTSTEPSEGSAPGTSTEPSEGSAPGTSESATPESGPGTSESATPESGPGSPAGSPTSTEEGTSESATPESGPGSEPATSGSETPGTSESATPESGPGTSTEPSEGSAPGTSTEPSEGSAPGTSTEPSEGSAPGTSTEPSEGSAPGTSTEPSEGSAPGTSTEPSEGSAPGSPAGSPTSTEEGTSTEPSEGSAPGTSESATPESGPGSEPATSGSETPGTSESATPESGPGSEPATSGSETPGTSESATPESGPGTSTEPSEGSAPGTSESATPESGPGSPAGSPTSTEEGSPAGSPTSTEEGSPAGSPTSTEEGTSESATPESGPGTSTEPSEGSAPGTSESATPESGPGSEPATSGSETPGTSESATPESGPGSEPATSGSETPGTSESATPESGPGTSTEPSEGSAPGSPAGSPTSTEEGTSESATPESGPGSEPATSGSETPGTSESATPESGPGSPAGSPTSTEEGSPAGSPTSTEEGTSTEPSEGSAPGTSESATPESGPGTSESATPESGPGTSESATPESGPGSEPATSGSETPGSEPATSGSETPGSPAGSPTSTEEGTSTEPSEGSAPGTSTEPSEGSAPGSEPATSGSETPGTSESATPESGPGTSTEPSEGSAPGHHHHHH
notes: XTEN-RSR2295-anti-EpCAM scFv-anti-CD3 (hCD3.9) scFv-RSR2295-XTEN-His6

Tests used:
[1] = molecular target: human CD3 on cells (CD3+ Jurkat cells; purified human CD3 positive T cells) (human, UniProt P07766 23-207); experiment: cell-based or functional assay
[2] = molecular target: T1, human EpCAM expressed on cells (CHO …); experiment: cell-based or functional assay
[3] = molecular target: T2, recombinant human EpCAM (rhEpCAM), …; experiment: sandwich ELISA: rhEpCAM coated, peroxidase-conjugated protein L detection
[4] = molecular target: recombinant human CD3 epsilon & delta (rhCD3ε & δ), Creative BioMart cat #CD3E&CD3D-219H (human) (UniProt P07766); experiment: sandwich ELISA: rhCD3ε & δ coated, peroxidase-conjugated protein L detection
[5] = molecular target: recombinant human CD3 epsilon & delta (rhCD3ε & δ), Creative BioMart cat #CD3E&CD3D-219H (human) (UniProt P07766); experiment: sandwich ELISA: rhCD3ε & δ coated, biotinylated anti-XTEN antibody detection
[6] = molecular target: recombinant human CD3 epsilon & delta (rhCD3ε & δ), Creative BioMart cat #CD3E&CD3D-219H (human) (UniProt P07766); experiment: SPR (Biacore 3000), His-tagged CD3εδ coupled to chip, ProTIA as analyte at 5-6 concentrations
[7] = molecular target: T3, Fc-tagged EpCAM (R&D Systems, cat …); experiment: SPR (Biacore 3000), Fc-tagged EpCAM coupled to chip, ProTIA as analyte at 5-6 concentrations
[8] = molecular target: T1, human EpCAM expressed on cells (CHO …); experiment: competition flow cytometry on hEp-CHO 4-12B cells

Sequence of recombinant human CD3 epsilon & delta (rhCD3ε & δ), Creative BioMart cat #CD3E&CD3D-219H (human) (P07766 23-126, stated change not applied, chain 1 of 2): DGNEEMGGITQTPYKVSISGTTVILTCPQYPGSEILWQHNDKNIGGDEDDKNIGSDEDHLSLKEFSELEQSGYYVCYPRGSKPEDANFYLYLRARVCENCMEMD
Sequence of recombinant human CD3 epsilon & delta (rhCD3ε & δ), Creative BioMart cat #CD3E&CD3D-219H (human) (P04234 22-105, stated change not applied, chain 2 of 2, further chain): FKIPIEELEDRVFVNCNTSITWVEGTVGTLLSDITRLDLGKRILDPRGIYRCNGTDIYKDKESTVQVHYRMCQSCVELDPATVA
Sequence of human CD3 on cells (CD3+ Jurkat cells; purified human CD3 positive T cells) (P07766 23-207): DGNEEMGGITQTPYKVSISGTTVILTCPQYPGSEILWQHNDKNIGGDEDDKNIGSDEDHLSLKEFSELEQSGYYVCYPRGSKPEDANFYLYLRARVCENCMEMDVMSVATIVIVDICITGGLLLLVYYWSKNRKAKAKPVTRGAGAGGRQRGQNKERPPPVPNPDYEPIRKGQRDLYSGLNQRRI

Binder | EC50, LDH release cytotoxicity, purified human CD3 positive T cells with OVCAR-3 cells 5:1 [1] [nM] | EC50, LDH release cytotoxicity, purified human CD3 positive T cells with SK-OV-3 cells 5:1 [1] [nM] | EC50 (pM), caspase 3/7 cytotoxicity, PBMC with HCT-116 cells 10:1 [2] [pM] | EC50 (pM), caspase 3/7 cytotoxicity, PBMC with HPAF-II cells 10:1 [2] [pM] | EC50 (pM), caspase 3/7 cytotoxicity, PBMC with MDA-MB-231 cells 10:1 [2] [pM] | EC50 [3] [nM] | EC50 [4] [nM] | EC50 [5] [µg/mL] | Kd [6] [nM] | Kd [7] [nM] | fold weaker binding affinity than cleaved AC1968 [8] [fold]
B1 | 0.086 | 2.66 | 1270 | 1170 | 10200 | 0.32 | 2.2 | 0.027 | 27.8 | 10 | 
B2 |  |  |  |  |  |  |  |  |  |  | ~100
